Results from paper PMC2691592, “Caenorhabditis elegans Protein Arginine Methyltransferase PRMT-5 Negatively Regulates DNA Damage-Induced Apoptosis” (PLoS Genetics, 2009).

Target: T1, PRMT-5His6 (C. elegans, UniProt P46580 1-734)
T1 construct: C. elegans protein arginine methyltransferase PRMT-5, open reading frame C34E10.5, a protein of 734 amino acids; cDNA of prmt-5 cloned into pET21a; also called purified PRMT-5His6 protein; recombinant PRMT-5
Experiment: pull-down; GST-CEP-1 or GST immobilised on glutathione sepharose beads, incubated with purified PRMT-5His6 for more than 2 h; bound PRMT-5His6 detected by immunoblot with anti-PRMT-5 antibody
Conditions: both partners purified

T1 sequence (P46580 whole entry): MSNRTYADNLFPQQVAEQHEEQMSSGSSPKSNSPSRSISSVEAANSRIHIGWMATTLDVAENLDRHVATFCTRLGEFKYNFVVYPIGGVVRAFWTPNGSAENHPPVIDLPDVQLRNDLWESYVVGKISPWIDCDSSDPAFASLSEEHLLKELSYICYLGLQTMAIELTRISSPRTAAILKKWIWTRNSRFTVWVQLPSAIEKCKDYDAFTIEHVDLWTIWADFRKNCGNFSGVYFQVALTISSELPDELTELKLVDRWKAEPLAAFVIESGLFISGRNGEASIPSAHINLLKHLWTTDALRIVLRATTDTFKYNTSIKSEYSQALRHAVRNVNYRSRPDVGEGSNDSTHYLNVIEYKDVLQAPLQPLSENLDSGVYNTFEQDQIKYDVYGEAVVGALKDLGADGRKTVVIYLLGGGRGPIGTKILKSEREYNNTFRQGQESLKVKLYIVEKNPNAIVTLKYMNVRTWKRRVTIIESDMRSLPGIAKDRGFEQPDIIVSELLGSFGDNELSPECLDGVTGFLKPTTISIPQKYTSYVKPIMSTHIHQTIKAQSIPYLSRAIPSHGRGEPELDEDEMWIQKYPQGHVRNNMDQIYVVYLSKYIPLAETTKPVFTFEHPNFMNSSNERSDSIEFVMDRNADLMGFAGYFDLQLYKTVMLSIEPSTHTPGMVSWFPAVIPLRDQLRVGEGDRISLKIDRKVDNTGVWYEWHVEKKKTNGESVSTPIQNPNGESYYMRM

B1: GST-CEP-1 (natural protein, C. elegans, UniProt Q20646 1-644, looked up)
chain: MEPDDSQLSDILKDARIPDSQDIGVNLTQNLSFDTVQKMIDGVFTPIFSQGTEDSLEKDILKTPGISTIYNGILGNGEETKKRTPKISDAFEPDLNTSGDVFDSDKSEDGLMNDESYLSNTTLSQVVLDSQKYEYLRVRTEEEQQLVIEKRARERFIRKSMKIAEETALSYENDGSRELSETMTQKVTQMDFTETNVPFDGNDESSNLAVRVQSDMNLNEDCEKWMEIDVLKQKVAKSSDMAFAISSEHEKYLWTKMGCLVPIQVKWKLDKRHFNSNLSLRIRFVKYDKKENVEYAIRNPRSDVMKCRSHTEREQHFPFDSFFYIRNSEHEFSYSAEKGSTFTLIMYPGAVQANFDIIFMCQEKCLDLDDRRKTMCLAVFLDDENGNEILHAYIKQVRIVAYPRRDWKNFCEREDAKQKDFRFPELPAYKKASLESINIKQEVNLENMFNVTNTTAQMEPSTSYSSPSNSNNRKRFLNECDSPNNDYTMMHRTPPVTGYASRLHGCVPPIETEHENCQSPSMKRSRCTNYSFRTLTLSTAEYTKVVEFLAREAKVPRYTWVPTQVVSHILPTEGLERFLTAIKAGHDSVLFNANGIYTMGDMIREFEKHNDIFERIGIDSSKLSKYYEAFLSFYRIQEAMKLPK
notes: C. elegans p53 homolog CEP-1; called the full-length GST-CEP-1 fusion protein; pGEX vectors put GST at the N-terminus; also called GST-CEP-1 fusion protein; full-length GST-CEP-1
Q: Does B1 bind?
A: binds
